Laboratory results from patent US20040071690A1.

Tests used:
[1] = biological target: NC41 Fab; test: BIAcore SPR; NC41 Fab immobilised, scFv as analyte (apparent, multivalent)
[2] = biological target: NC41 Fab; test: gel filtration FPLC on Superose 12
[3] = biological target: NC41 Fab; test: sedimentation equilibrium of the isolated complex
[4] = biological target: Anti-idiotype 3-2G12 Fab′; test: sedimentation equilibrium of the isolated complex
[5] = biological target: NC10 scFv-0 trimer (VH-VL); test: BIAcore SPR; scFv-0 trimer immobilised (450 RU), Fab′ as analyte
[6] = biological target: NC10 scFv-15 monomer; test: BIAcore SPR; scFv-15 monomer immobilised (2000 RU), Fab′ as analyte
[7] = biological target: NC10 scFv-10 dimer; test: BIAcore SPR; scFv-10 dimer immobilised (200 RU), Fab′ as analyte
[8] = biological target: NC10 scFv-5 dimer; test: BIAcore SPR; scFv-5 dimer immobilised (200 RU), Fab′ as analyte
[9] = biological target: NC10 scFv-15 monomer; test: BIAcore SPR; scFv-15 monomer immobilised (~2000 RU), from the RU increase
[10] = biological target: Anti-idiotype 3-2G12 Fab′; test: sedimentation equilibrium of the isolated complex, fitted as a single species
[11] = biological target: Anti-idiotype 3-2G12 Fab′; test: BIAcore SPR; 3-2G12 Fab′ immobilised (1000 RU), scFv as analyte
[12] = biological target: NC41 Fab; test: BIAcore SPR; NC41 Fab immobilised, scFv as analyte

11-1G10 scFv-0 trimer showed a koff [1] of 8.2e-05 s⁻¹, an apparent molecular mass of complex [2] of 245 kDa and a molecular mass of complex (experimental) [3] of 262000 Da.

NC10 scFv-5 dimer showed a molecular mass of complex (measured) [4] of 156000 Da.

Anti-idiotype 3-2G12 Fab′ was tested, and the Ka [5] was 1.13e+08 M⁻¹, the koff [5] was 0.0023 s⁻¹ and the kon [5] was 260000 M⁻¹ s⁻¹. It also gave a Ka [6] of 2.5e+08 M⁻¹, a koff [6] of 0.0021 s⁻¹ and a kon [6] of 500000 M⁻¹ s⁻¹. The Ka [7] was 1.3e+08 M⁻¹, the koff [7] was 0.0029 s⁻¹ and the kon [7] was 370000 M⁻¹ s⁻¹. The Ka [8] was 1.06e+08 M⁻¹, the koff [8] was 0.0033 s⁻¹ and the kon [8] was 350000 M⁻¹ s⁻¹. For the same substance, the percent of immobilised protein active [9] was under 10%.

NC10 scFv-0 trimer (VH-VL) showed a molecular mass of complex (measured, apparent average) [10] of 212000 Da.

With NC10 scFv-15 monomer the Ka [11] was 4.2e+08 M⁻¹, the koff [11] was 0.00174 s⁻¹ and the kon [11] was 740000 M⁻¹ s⁻¹. The molecular mass of complex (measured) [4] was 77900 Da.

11-1G10 scFv-15 monomer gave an apparent molecular mass of complex [2] of 79 kDa, a molecular mass of complex (experimental) [3] of 78600 Da and a koff [12] of 0.00032 s⁻¹.
